Results published in US20230365705A1 (DYNAMICURE BIOTECHNOLOGY, published 2023).

B1: h7F3 (humanized 7F3, VH3+VL3) (antibody, human IgG1, V domains shown)
VH: QVQLVQSGAEVKKPGASVKVSCKASGYTFTDYEMHWVRQAPGQGLEWMGGIDPETGDTAYNQNFKGRVTMTTDTSTSTAYMELRSLTSDDTAVYYCTNYGNLYYYAMDYWGQGTSVTVSS
VL: EIVLTQSPSSLSASVGDRVTITCRASSSVSSSYLHWYQQKPGKAPKLLIYSTSNLAFGVPSRFSGSGSGTSYTFTISSLQPEDIATYYCQQYSGYPLTFGSGTKLEIK
notes: also called humanized 7F3-hIgG1
B2: h16E4 (humanized 16E4, VH4+VL6) (antibody, V domains shown)
VH: QVQLVQSGAEVKKPGASVKVSCKASGYTFTSYWMHWVRQAPGQGLEWMGEIDPSASYTYYNQKFKGRVTMTRDKSSSTVYMELSSLTSEDSAVYYCARSVYYGNKYFDVWGAGTTVTVSS
VL: DIQMTQSPSTLSASVGDRVTITCKASQSVDYAGDSYMNWYQQKPGKAPKLLIYAASNLESGVPSRFSGSGSGTEFTLTISSLQPDDFATYYCQQTNEDPRTFGGGTKLEIK
notes: Detected with anti-human IgG, so a human Fc
B3: 16E4 (hybridoma) (antibody, IgG2a, V domains shown)
VH: QVQLQQPGAELVKPGASVKLSCKASGYTFTSYWMHWVKQRPGQGLEWIGEIDPSASYTYYNQKFKGKATLTVDKSSSTAYMQLSSLTSEDSAVYYCARSVYYGNKYFDVWGAGTTVTVSS
VL: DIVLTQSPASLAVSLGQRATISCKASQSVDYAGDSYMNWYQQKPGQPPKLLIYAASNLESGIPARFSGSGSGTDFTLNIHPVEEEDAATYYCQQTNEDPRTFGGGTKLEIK
notes: also called 16E4 mAb; 16E4 mIgG2a

Columns and labels:
[1] = biological target: T1, Human CD93 recombinant protein (Sino Biological Inc, Catalog #12589-H08H) (human, UniProt Q9NPY3 22-580); test: ELISA, His-tagged human CD93 coated, OD450; antibody stored 4 weeks at 40 C
T1 construct: Biotinylated (EZ-LINK NHS-PEG4 biotin) in the BLI assays; also called hCD93; His-tagged human CD93
T1 sequence (looked up): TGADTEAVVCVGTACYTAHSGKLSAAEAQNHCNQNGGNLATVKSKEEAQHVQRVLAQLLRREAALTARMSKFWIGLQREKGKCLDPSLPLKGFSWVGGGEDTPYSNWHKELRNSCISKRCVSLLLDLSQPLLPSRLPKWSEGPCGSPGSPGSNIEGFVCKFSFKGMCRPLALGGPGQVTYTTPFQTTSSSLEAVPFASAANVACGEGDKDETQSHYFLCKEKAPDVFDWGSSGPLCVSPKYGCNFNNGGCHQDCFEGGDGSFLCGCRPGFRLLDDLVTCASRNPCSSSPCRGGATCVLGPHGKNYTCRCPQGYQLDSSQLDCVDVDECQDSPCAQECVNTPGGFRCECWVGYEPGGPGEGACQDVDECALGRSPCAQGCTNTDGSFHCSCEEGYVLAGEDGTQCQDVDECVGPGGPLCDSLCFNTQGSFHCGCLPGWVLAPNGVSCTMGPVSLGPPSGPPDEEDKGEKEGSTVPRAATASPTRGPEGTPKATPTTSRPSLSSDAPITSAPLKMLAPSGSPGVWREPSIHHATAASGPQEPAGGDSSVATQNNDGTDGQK
Procedure: His-tagged human CD93 was coated onto a 96 well plate at 1 μg/mL in 1×PBS overnight at 4° C. The plate was washed with ELISA wash buffer (Boston BioProduct, Inc.) and the wells were blocked with ELISA blocking buffer for 1 hour at 37° C. […] The plate was washed with ELISA wash Buffer. HRP-conjugated anti-human Fc antibody was incubated for 1 hour at 37° C. The plate was washed with ELISA wash Buffer. HRP substrate was added for indirect detection of the antibodies binding to CD93.

[2] = biological target: T2, Human CD93 on cells (human CD93 expressing CHO cells; HUVEC, U937 and KG1a cells) (human, UniProt Q9NPY3 22-652); test: flow cytometry blocking assay, CHO-hCD93 cells; blocked ligand hMMRN2 495-674 at 0.1 ug/ml
T2 construct: whole, on cells; also called hCD93 expressing CHO cells; hCD93 CHO cells
T2 sequence (looked up): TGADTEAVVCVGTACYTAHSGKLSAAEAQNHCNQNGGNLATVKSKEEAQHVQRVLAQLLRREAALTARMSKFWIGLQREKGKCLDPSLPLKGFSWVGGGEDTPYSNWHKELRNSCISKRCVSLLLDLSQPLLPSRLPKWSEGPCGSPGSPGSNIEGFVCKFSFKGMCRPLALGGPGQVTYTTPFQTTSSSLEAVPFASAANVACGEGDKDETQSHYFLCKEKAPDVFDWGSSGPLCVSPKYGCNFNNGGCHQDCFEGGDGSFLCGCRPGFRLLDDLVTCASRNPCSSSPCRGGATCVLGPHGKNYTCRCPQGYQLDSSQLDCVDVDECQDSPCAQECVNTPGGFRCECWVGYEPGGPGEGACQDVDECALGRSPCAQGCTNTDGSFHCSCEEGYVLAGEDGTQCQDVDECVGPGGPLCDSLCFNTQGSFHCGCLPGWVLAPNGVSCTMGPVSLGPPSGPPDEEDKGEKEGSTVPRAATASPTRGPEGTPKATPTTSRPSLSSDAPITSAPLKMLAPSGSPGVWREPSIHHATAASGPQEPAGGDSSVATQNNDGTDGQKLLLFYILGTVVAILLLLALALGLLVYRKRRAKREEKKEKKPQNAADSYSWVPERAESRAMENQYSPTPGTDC
Procedure: Then the cells were incubated with hMMRN2₄₉₅₋₆₇₄ at 0.1 μg/ml. […] Then the cells were washed with FACS buffer and incubated with APC-conjugated anti-His tag antibody at 1 μg/ml for 30 minutes at 4° C. After washing with FACS buffer twice, the samples were analyzed and data acquired in NovoCyte Flow. Recombinant his tagged […] was produced internally in Expi_HEK following routine procedure.

[3] = biological target: T2, Human CD93 on cells (human CD93 …); test: summary table, column FACS (KG1a cells); 4 weeks at 40 C
Procedure: (§1) KG1a cells were detached by incubation with TrypLE reagents (Thermo Fisher), which preserves the integrity of CD93 on the cell surface. Then the cells were incubated with serial diluted anti-CD93 antibodies for 30 minutes at 4° C. After washing by FACS buffer, the cells were incubated with Alexa Fluor 647 conjugated anti-human IgG (Jackson ImmunoResearch) for 30 minutes in 4° C. After washing by FACS buffer twice, the samples were acquired in NovoCyte Flow Cytometer and analyzed by NovoExpress software.
as §1

[4] = biological target: T2, Human CD93 on cells (human CD93 …); test: flow cytometry blocking assay, CHO-hCD93 cells; blocked ligand hMMRN2 495-674 at 0.1 ug/ml; antibody stored 2 weeks at 40 C
Procedure: Then the cells were incubated with hMMRN2₄₉₅₋₆₇₄ at 0.1 μg/ml. […] After washing with FACS buffer twice, the samples were analyzed, and data acquired in NovoCyte Flow. Recombinant his tagged hMMRN2₄₉₅₋₆₇₄ was produced internally in E. Coli following routine procedure.

[5] = biological target: T2, Human CD93 on cells (human CD93 …); test: flow cytometry titration, KG1a cells; antibody stored 2 weeks at 40 C
Procedure: as §1

[6] = biological target: T2, Human CD93 on cells (human CD93 …); test: summary table, column FACS (KG1a cells); 2 weeks at 40 C
Procedure: as §1, §1

[7] = biological target: T2, Human CD93 on cells (human CD93 …); test: summary table, column FACS (CHO-hCD93 cells)

Binder	EC50 [1] [pM]	IC50 [2] [pM]	EC50 [3] [pM]	IC50 [4] [pM]	EC50 [5] [pM]	EC50 [6] [pM]	EC50 [7] [pM]
B1	40.7	133	19	133	21	21	–
B2	51	–	115	–	113	113	388
B3	–	–	–	–	–	–	590
